As a reminder, the Kd is a measure of binding affinity in units of concentration.

Experiment [1] deals with synthetic, predominantly monomeric amyloid-β (M-Aβ) (human) (UniProt P05067). The experiment is described as follows: SPR; BIAcore 3000, CM-4 chips; monomeric Aβ, aggregated Aβ (100 fmol Aβ42/mm^2) or iC3b amine-coupled; I domains injected at 20-10000 nM in 150 mM NaCl, 1 mM MgCl2, 5.0 mM HEPES (pH 7.4); contact 180 s, dissociation 400 s; two-dimensional distribution of 1:1 interactions fitted with EVILFIT.

For experiment [2], the target named is in vitro-aggregated amyloid-β (A-Aβ) (human) (UniProt P05067). The experiment is described as above.

In experiment [1], “CR3 I domain, stabilized in the activated conformation (domain or fragment)” registered a Kd of 79 µM. This counts as double-digit micromolar.

Turning to “CR4 I domain, stabilized in the activated conformation (from UniProt P20702 20-1101) (domain or fragment)”, in experiment [2], the KD, high-affinity class of binding sites was determined as 16 pM; the koff, high-affinity class of binding sites was 0.00025 s⁻¹; the koff, moderate-affinity class of binding sites is 5e-05 s⁻¹.

The record behind these values is publication PMC10858199, “Amyloid-β aggregates activate peripheral monocytes in mild cognitive impairment” (Nature Communications, 2024).
